In patent US20230279047A1:

Key:
[1] = biological target: IgG1 monoclonal antibody; assay: SPR (Biacore), ligand amine-coupled on CM5 chip, IgG1 mAb as probe
[2] = biological target: human polyclonal IgG (Gammanorm) (human); assay: DBC column, 6 min residence; ligand 10.8 mg/ml on agarose beads
[3] = biological target: human polyclonal IgG (Gammanorm) (human); assay: DBC column, 6 min residence; ligand […] on agarose beads
[4] = biological target: human polyclonal IgG (Gammanorm) (human); assay: as above; remark: listed apart in the source
[5] = biological target: human polyclonal IgG (Gammanorm) (human); assay: DBC column, 6 min residence; ligand 7.2 mg/ml on agarose beads
[6] = biological target: human polyclonal IgG (Gammanorm) (human); assay: DBC column, 6 min residence; ligand 9.7 mg/ml on agarose beads
[7] = biological target: human polyclonal IgG (Gammanorm) (human); assay: as above; remark: listed apart in the source
[8] = biological target: human polyclonal IgG (Gammanorm) (human); assay: DBC column, 6 min residence; ligand 7.0 mg/ml on agarose beads

With “Zvar(Q9A,N11E,Q40V,A42K,N43A,L44I)1 (designed binder)” the Kd [1] was 1.07 nM, the koff [1] was 0.000437 s⁻¹ and the kon [1] was 410000 M⁻¹ s⁻¹.

“Zvar(Q9A,N11K,H18K,D37E,A42R)4 (designed binder)” was tested, and the Initial IgG capacity Qb10 [2] was 56.9 mg/mL.

“Zvar(Q9A,N11E,Q40V,A42K,N43A,L44I)4 (designed binder)” was tested, and the Initial IgG capacity Qb10 [3] was 60.3 mg/mL, the Initial IgG capacity Qb10 [4] was 56.3 mg/mL and the Initial IgG capacity Qb10 [5] was 49 mg/mL.

“Zvar(N11K,H18K,S33K,D37E,A42R,N43A,L44I,K50R,L51Y)4 (designed binder)” was tested, and the Initial IgG capacity Qb10 [6] was 62.1 mg/mL and the Initial IgG capacity Qb10 [7] was 56.3 mg/mL.

“Zvar(Q9A,N11E,N28A,N43A)4 (designed binder)” was tested, and the Initial IgG capacity Qb10 [4] was 50 mg/mL and the Initial IgG capacity Qb10 [8] was 49.1 mg/mL.
